Results reported in the nanobody polyreactivity screen of Harvey et al. (2022).

Assay: yeast display, Sf9 membrane polyspecificity reagent, FACS + sequencing; frameworks hold sequencing errors
Procedure, shortened: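 Nanobodies from a synthetic yeast display library (Saccharomyces cerevisiae BJ5465), induced 36–48 hours with galactose, were stained 1 hour at 4 °C with 10% biotinylated, detergent-solubilized Sf9 membrane reagent, enriched on streptavidin microbeads, then FACS-sorted. Anti-HA (expression) and streptavidin (reagent binding) fluorescence set low and high (top ~1%) gates. Polyreactivity labels come from the gate of origin. Genes were colony-PCR amplified, MiSeq 2 × 250 sequenced and filtered by CDR length.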

Sequence | polyreactivity (PSR sort gate)
QVQLVESGGGLVQAGGSLRLSCAASGSTFVYNAMGWYRQAPGKERELVAAISSGGSTYYADSVKGRFTISRDNAKNTVYLQMNSLKPEDTAVYYCNARGSWRRDKYGTYYRYDYWGQGTQVTVSS | high polyreactivity
QVQLVESGGGLVQAGGSLRLSCAASGSIFRPYAMGWYRQAPGKERELVATITWSGGSTYYADSVKGRFTISRDNAKNTVYLQMNSLKPEDTAVYYCAADPDLLWEYSDGYYGGDGGYWGQGTQVTVSS | low polyreactivity
QVQLVESGGGLVQAGGSLRLSCAASGRIFSYYAMLWYRQAPGKERELVATINSGGSTNYADSVKGRFTISRDNAKNTVYLQMNSLKPEDTAVYYCAASPVWWYDNWGQGTQVTVSS | low polyreactivity
QVQLVESGGGLVQAGGSLRLSCAASGSIFDSYAMGWYRQAPGKERELVADITSDGSTHYADSEKGRFRISRDNAKNTVYLQMNSLKPEDTAVYYCAADYFFYLLGVPVVDVYYWGQGTQVTVSS | low polyreactivity
QVQLVESGGGLVQAGGSLRLSCAASGSTFFGNAMGWYRQAPGKERELVAAITSGGSTNYADSVKGRFTFSRDNAKNTVSLQMNSLKPEDTAVYDCAKPSRWGWTGFYAYDYWGQGTQVTVSS | low polyreactivity
QVQLHESGGGLVQEGGSQRLSCAASGNIFYTYAMRWYRHAPGKEREFDATINHGTSINYADSVKGRFTISRDNAKNTVYLQMNSLKPEDTAVYYCAADLSWTDNLFYWGQGTQVTVSS | low polyreactivity
QVQLVESGGGLVQAGGSLRLSCAASGRIFSYYAMGWYRQAPGKERELVAAINWSGSSTYYADSVKGRFTISRDNAKNTVYLQMNSLKPEDTAVYYCAAGVPKNGQAGYDYWGQGTQVTVSS | high polyreactivity
QVQLVESGGGIVQAGGSLRLSCPASGLTFIYYAMGWYRQAPGKERELVAAITRGTSTYYADSVKGRFTISRDNAKNTVYLQMNSLKPEDTAVYDCAAKSRRVRTYNYWGQGTQVTVSS | high polyreactivity
QVQLVESGGGLVQAGGSLRLSCAASGSTFVRNAMGWYRQAPGKERELVAAITRGGRTYYADSVKGRFTISRDNAKNTVYLQLNSLKPEVTAVYYCAKPSSPSLGGVSDRNYWGQGTQVTVSS | low polyreactivity
QVQLVESGGGLVQAGGSLRLSCAASGSTFDVYAMGWYRQAPGKERELVAAISFSSGSTYYADSVKGRFTISRDNAKNTVYLQMNSLKPEDTAVYYCAARTYRYPYWGYDYWGQGTQVTVSS | high polyreactivity
QVQLVESGGGLVQSGGSLRLSCAASGRTFSYYAMGWYRQAPGKERELVAAISSGGSTNYADSVKGRFTISRDNAKNTVYLQMNSLKPEDTEVYYCATSSIWGSGRVRWVTYYYWGQGTQVTVSS | low polyreactivity
QVQLVESGGGLVQAGGSLRLSCAASGSTFPQYVMGWYRQEPGKERELVAAITKSGGRTYYADSVKGRFTISRDNAKNTVYLQMNSLKPEDTAVYYCAAVRWDISRFRYYSWGHGTQVTVSS | high polyreactivity
QVQLVESGGGLVQAGGSLRLSCAASGSTFVRNAMGWYRQAPGKERELVAAIRWRSGSTYYADSVKGRFTISRDNAKNTVYFQMNSLKPEDTAVYYCAVKGLGKMNYWGQGTQVTVSS | high polyreactivity
QVQLVESGGGLVQAGGSLRLSCAASGLTFGPYAMGWYRQAPGKERELVAAISLSDTDTYYAASVKGRFTISRDNAKNTGYLQMNSLKPEDTAVYYCAAEDGGLYDYWGQGTQVTVSA | high polyreactivity
QVQLVESGGGLVQAGGSLRLSCAASGRIIGYYAMGWYRQAPGKERELVAAITSGGRTNYADSVKGRFTISRDNAKNTVYLQMNSLKPEDTAVYYCAKEYPRYSSPYDYWGQGTQVTVSS | low polyreactivity
QVQLVESGGGIVQAGGSLRLSCAASGYTFPRYAMGWYRQAPGKERELVAAITSRGGSTYYADSVKGRFTISRDNAKNTVYLQMNSLKPEDTAVYYCAVLGFGALDFDSWGQGTQVTVSS | high polyreactivity
QVQLVESGGGLVQAGGSLRLSCAASGITFSPYTMGCYRQAPGKERELVAAITDGAITYYADSVKGRFTISRDNAKNTVYLQMNSLKPEDTAVYYCAAAAWGTDPYSTDYATYDYWGQGTQVTVSS | low polyreactivity
QVQLVESGGGLVQAGGSLRLSCAASGFTFVRYTMGWYRQAPGKERELVAAITSGGSTTYADSVKGRFTISRDNAKNTVYLQMNSLKPEDTAVYYCNAVFYLQYETGRELDYWGQGTQVTVSS | high polyreactivity
QVQLVESWGGLVQAGGSLRLSCADSGSTFNVNAMGWYSQAPGKESELVATITESGGRTYYADSVKGRFTISRDYAKNNVYLQMNSLKPEDTAVYYCARGDAWTFDYEPYDYWGQGTQVTVSS | low polyreactivity
QYQLVESGGGLVQAGGSLRLSCAASGRTFYYNAMGWYRQAPGKETELVASITITDSTNYSDSVKGRFTISRDNANNTVYLQMNSLKPEDTAVYYCAKRGLGTSFYLSDYWGQGTQVTVSS | low polyreactivity
QVQLVESGGGLVQAGGSLRLSCAASGSIFYQYAMGWYRQAPGKERELVARIRGSTGTTYYADSVKGRFTISRDNAKNTVYLQMNSLKPEDTAVYYCNAARYQGRSRFDYWGQGTQVTVSS | high polyreactivity
QVQLVESGGGLVQAGGSLRLSCAASGRIFSKNAMGWYRQAPGKERELVAAIDSSGDSTNYADSVKGRFTISRDNAKNTVYLQMNSLKTEDTAVYYCAATLGYRWSGFEYWGLGTQVTVSS | high polyreactivity

Sequence | polyreactivity (PSR sort gate)
QVQLVESGGGLVQAGGSLRLSCAASGSTFVWYGMGWYRQQPGNQREFVAAIYTSGGRTYYADSVKGRFTISRDNAKITVYLQMNSLKPEDTALYYCDTRPYFTYRWYDYWGQGTQVTVSS | high polyreactivity
QVQLVESGGGLVQAGGSLRLSCAASGSIISRNAMGWYRQAPGKEREFVAAITRSGGSTSYADSVKGRFTISRDNAKNTVYLQMNSLKPEDTAVYYCSASFARSATAYLFDYWGQGTQVTVSS | high polyreactivity
QVQLVESGGGFVQAGGSLSLSCAASGFTFRRYAMGWYRQAPGKERELVAAITSGGSTNYADSVKGRFTISRDNAKNTVYLQMNSLKPEDTAVYYCNARAGYERYGYWGQGTQVTVSS | high polyreactivity
QVQLVESGGGLVQARGSLRLSCAASGLTFRRNTMGWYRQAPGKERELVATITSGGSTNYADSVKGRFTISRDNAKNTVYLQMISLKPEDTAVYYCAARTTYITNWVYRHTYTYYYWGQGTQVTVSS | high polyreactivity
QVQLVESGGGLVQAGGSLRLSCAASGSIFNRNAMGWYRQAPGKERELVAAINYSGGSTYYADSVKGRFTISRDNAKNTVYLQMNSLKPEDTAVYYCAARPVALRKYDYWGQGTQVTVSS | low polyreactivity
QVQLVESGGGLVQAGGSLRLCCAASGSTQAIYAMGWYRQAPGNERELVAAISGGGSTYADSVKGRFTISRDNAKNTVYLQMNSLKPEDTAVYYCNADGWGDSFWSNFRFDYWGQGTQVSVSS | low polyreactivity
QVQLVESGGCLVQAGGSLRLSCAASGFTFYGYAMAWYRQAPGKERELVAYISWSGGTTYYADSVKGRFTISRDNAKNTVYLQMNSLKPEDTAVYYCNAVRYRYGVFPYYYWGQGTQVTVSS | high polyreactivity
QVQLVESGGGLVHAGGSLRLSCAASGSTFHRYAMGWYRQAPGKERELVARINGSGGSTYYADSVKGRFTISRDNAKNSVYLQMNSLIPEDTAVYYCAAELDVYVSIGSRFHFDYWGQGTQVTVSS | low polyreactivity
QVQLVESGGGLVQAGGSLRLSCAASGSIQYYAMGWYRQEPGKERELVAAIRFSGGRTYYADSVKGRFTISRDNAKNTVYLQMNSLKPEETAVYYCAAYRSPRRSGAPSQGKFDYWGQVTQVTVSS | high polyreactivity
QVQLVESGGGLVQAGGSLRLSCAASGITFGNYAMGWYRQAPGKERELVAAISQSSGRTYYADSVKGRFTISRDNAKNTVYLQMNSLKPEDTAVYYCAARTRGSSRGDYDYWGQGTQVTVSS | high polyreactivity
QVQLVESGGGIVQAGRSLRVSCADSGSAFPRYDMGWYRPAPGKERELVAAISRGGSTNYADSVKGRFTLSRDNATNSVSLQMFCLIPVDPAVYYCAAQIFESAYGIVYWGQRTQVTVSS | low polyreactivity
QVQLVESGGGLVQAGGSLRLSCAASGSTFAYNAMGWYRQAPGKERELVAAIDINDGNTYYADSVKGRFTISRDNAKNTVYLQMNSLNPEDTAVYYCAAEGPYYLGLDGVKDDYWGQGTQVTVSS | low polyreactivity
QVQLVESGGGLVQAGRSLRLSCAASGFIILGNAMGWYRQAPGKERELVAAISSGGSTYADSVKGRFTISRDNAKNTVYLQMNSLKPEDTAVYYCAVDRAFRAQNYHEYDYWGQGTQVTVSS | low polyreactivity
QVQLVESGGGLVQAGGSLRLSCAASGNIFFTYAMGWYRQAPGKERELVAAITSGGRTYYADSVKGRFTISRENPKNTFYLQMNSLKPEDTAVYYCASYYKYLGYGYWGQGTQVTVSS | high polyreactivity
QVQLVESGGGLVQAGGSLRLSCAASGRTFYSYAMGWYRPAPGQERELVARITWSGGTYYADSVKGRFTISRDNAKTTVYLQMNSLKPEDTAVYYCNKYRPYGRIYHLAYGRDYWGQGTQVTVSS | high polyreactivity
QVQLEDSGGGLVQAGGSLRLSCAASGRIFGKYAMGWYRQAPGKERELVAAISYSGGRTYYADSVKGRFTISRDNAKNTVYLQMNSLTPEDTAVYYCAAVYHGINSYDYDYSGQGTQVTVSS | high polyreactivity
QVQLVESGGGLVQAGGSLRLSCAASGFTFKVYNAMGWYRQAPGKERELVAAITSSVGGTYYADSVKGRFTISRDNAKNTFYLQMNSLKPEDTAVYYFATDGPISPYWEWPWLLYDYWGQGTQVTVSS | low polyreactivity
QVQLVESGGGLVQAGGSLRLSCAASGRIFWYNAMGWYRQAPGKERGLVAVISTRGGRTYYADSVKGRFTISRDNAKNTVYLQMNSLKPEDTAVYYCAAEFLNKAVGGVTSIYDSWGQGTQVTVSS | low polyreactivity
QVQLGESGGGLVQAGGSLRLSCAASGSIFGHYAMGWYRQAPGKERELVAAISWSGTSTYYADSVKGRFTISRDNAKNTVYFQMNTLKPEDTAVYYCNVVYRVVSPSGGGYWGQGTQVTVSS | high polyreactivity
QVQLVESGGGLFQAGGSLRLSCAASGRIFGIYAMGWYRQAPGKERELVAAITRGSTYYADSVKGRFTISRDNAKNTVYLQMNSLKPEDTAVYYCNARPRVPGVLYLYDYLGQGTQVTVSS | high polyreactivity
QVQLVESGGGLVQAGGSLRLSCAASGRILGKNTMGWYRQAPGKEREFVAAISASGGRTYYADSVKGRFTISRDNAKNTVYLQMNSLKPEDTAVYYCAAARSRYSYATGFDYWGQGTQVTVSS | high polyreactivity
